We go through four molecules from patent publication EP2261242A1, “Aspartate-N-acetyltransferase enzyme, diagnostic method and therapeutic method” (UNIVERSITE CATHOLIQUE DE LOUVAIN, priority 2009, dated 2010).

A word on the Ki: it is a dissociation constant, usually derived from enzyme kinetics or from competition with a known ligand. Lower therefore signals a stronger hold on the target. Broadly, the Km is the concentration of substrate that gives half-maximal velocity.

One series addresses T1, mouse NAT8L (Mus musculus, UniProt Q3UGX3).
T1 construct: expressed in transfected cells; host or cells: HEK 293T cells (pCMV5 vector); washed 16 000 x g membrane pellets of frozen-thawed extracts
T1 sequence (Q3UGX3 1-299): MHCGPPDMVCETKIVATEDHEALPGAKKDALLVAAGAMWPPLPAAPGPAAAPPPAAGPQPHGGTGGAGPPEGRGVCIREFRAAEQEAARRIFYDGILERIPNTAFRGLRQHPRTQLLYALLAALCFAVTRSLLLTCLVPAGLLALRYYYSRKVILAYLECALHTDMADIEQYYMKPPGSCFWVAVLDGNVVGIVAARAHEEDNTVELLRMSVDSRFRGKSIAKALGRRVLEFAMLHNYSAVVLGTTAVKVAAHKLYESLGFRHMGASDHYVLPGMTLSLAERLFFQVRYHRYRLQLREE
Kind of series: Radiochemical Asp-NAT activity assay on washed membrane pellets of HEK cells transfected with untagged mouse NAT8L. Type of series: biochemical. The method, then: After 20-40 min at 30°C, the reaction was arrested by a 5-min incubation at 80°C and 1 ml of 5 mM Hepes, pH 7.1 was added. The sample was centrifuged and the supernatant was applied on a 1-ml Dowex AG1X8 column (Cl^- form, 100-200 mesh, from Acros Organics) prepared in a Pasteur capillary pipette. […] Radioactivity was counted in the presence of Ultima Gold™ (Perkin Elmer) in a liquid scintillation counter. The kinetic studies shown in Figure 3 were performed using washed pellets, obtained by centrifuging extracts for 20 min at 16 000 x g, resuspending them in the initial volume of extraction buffer, recentrifugation and resuspension in the original volume of extraction buffer.
The Asp-NAT activity was further characterized in extracts of cells expressing wild-type mouse NAT8L. […] The kinetic studies were therefore performed on washed pellets, to eliminate soluble, potentially interfering enzymes. […] The KM values amounted to ≈ 9 and 13 µM in the presence of 0.5 and 1 mM CHAPS, respectively.

Substrate in series [1]: N[C@@H](CC(=O)O)C(=O)O
Kind of series: purified protein, by the assay type. The note with it: other: substrate saturation curve; same in absence and presence of 0.5 mM CHAPS; pH 7.1.

Substrate in series [2]: CC(=O)SCCNC(=O)CCNC(=O)[C@H](O)C(C)(C)COP(=O)(O)OP(=O)(O)OC[C@H]1O[C@@H](n2cnc3c(N)ncnc32)[C@H](O)[C@@H]1OP(=O)(O)O
Kind of series: purified protein, by the assay type. Conditions: other: 20 µM aspartate, pH 7.1.

Substrate in series [3]: NC(CCC(=O)O)C(=O)O
The experiment in a line: purified protein, by the assay type. The note with it: other: glutamate as substrate (not shown); pH 7.1.

Where two headings read alike, the source gives them in different places.

For the molecule `C[C@H](CCC(=O)NCCC[N+](C)(C)CCCS(=O)(=O)[O-])[C@H]1CC[C@H]2[C@@H]3[C@H](O)C[C@@H]4C[C@H](O)CC[C@]4(C)[C@H]3C[C@H](O)[C@]12C` [CHAPS], the “increase of Vmax” value on mouse NAT8L (0.5 mM CHAPS, saturation curve for aspartate) is reported as “≈ 30%”.

Consider `CC(=O)N[C@@H](CC(=O)O)C(=O)O` [NAA, N-acetylaspartate], for which the Ki on mouse NAT8L (inhibition of incorporation of [^14C]-aspartate into NAA, competitive with respect to aspartate, 200 µM acetyl-CoA, 0.5 mM CHAPS, variable aspartate) was found to be 0.56 mM.

On mouse NAT8L, `N[C@@H](CCC(=O)O)C(=O)O` [glutamate] came in with an inhibition constant (Ki) of about 6 mM.

B1: mouse NAT8L (Mus musculus) (protein)
chain: MHCGPPDMVCETKIVATEDHEALPGAKKDALLVAAGAMWPPLPAAPGPAAAPPPAAGPQPHGGTGGAGPPEGRGVCIREFRAAEQEAARRIFYDGILERIPNTAFRGLRQHPRTQLLYALLAALCFAVTRSLLLTCLVPAGLLALRYYYSRKVILAYLECALHTDMADIEQYYMKPPGSCFWVAVLDGNVVGIVAARAHEEDNTVELLRMSVDSRFRGKSIAKALGRRVLEFAMLHNYSAVVLGTTAVKVAAHKLYESLGFRHMGASDHYVLPGMTLSLAERLFFQVRYHRYRLQLREE
As to B1, the Km in series [1] was 90 µM; in series [2] (in the presence of 0.5 mM CHAPS) it was 9 µM; in series [2] (in the presence of 1 mM CHAPS), 13 µM; in series [3], 5000 µM.
